Read-outs that look alike come from different tables or passages of the source.
B1: H4H9814P (antibody, human IgG4 S228P, kappa, V domains shown)
VH: EVQLVESGGGLVQPGGSLKLSCTASGFTFSGSVIHWVRQASGKGLEWIGRIRNKANSYATAYGASVTGRFTISRDDSKNTAYLQMNSLKTEDTAVYYCTFPGVVGRGGFDYWGQGTLVTVSS
VL: DIVMTQSPDSLAVSLGEGATINCMSSQSVLFSSNNKNYLAWYQQKPGQPPKLLFYWASTRESGVPDRFGGSGSGTDFSLTINSLQTEDVAVYYCLQYYSIPWTFGQGTKVEIKR
notes: Fully human anti-human TrkB agonist antibody, human IgG4 Fc; also called H4H9814P-L1
B2: M2aM14179N (antibody, mouse IgG2a, kappa, V domains shown)
VH: EVQLQQSGPELVKPGASVKISCKASGYTLTDYYMNWVKQSHGKSLEWIGDINPNNGGTSYNQKFKGKATLTVDKSSSTAYMELRSLTSEDSAVYYCARGAYYSNYFDYWGQGTTLTVSS
VL: DIVMSQSPSSLAVSAGEKVTMSCKSSQSLLNSRTRKNYLAWYQQKPGQSPKLLIYWASTRESGVPDRFTGSGSGTDFTLTISSVQAEDLAVYYCKQSYILFTFGSGTQLEIKR
notes: Anti-mouse TrkB antibody from hybridoma, mouse IgG2a Fc; also called surrogate anti-mouse TrkB antibody
B3: H4H9780P (antibody, human IgG4 S228P, kappa, V domains shown)
VH: QVQLVESGGGVVQPGRSLRLSCAASGFSFSSFGMHWVRQAPGKGLEWVSVISYDGINTYYTDSVKGRFTISRDNSKNTLYLQMNGLRAEDTALYYCVQGSIGTVFEYWGQGTLVTVSS
VL: DIQMTQSPSSLSASVGDRVTITCRASQGISNYLAWYQQKPGKVPKLLIYAASTLQSGVPSRFGGSGSGTDFTLTISSLQPEDVATYYCQKYTSAPFTFGPGTKVDIKR
notes: Fully human anti-human TrkB agonist antibody, human IgG4 Fc; also called H4H9780P-L1
B4: H1M8037C (antibody, mouse IgG1, kappa, V domains shown)
VH: QVQLVQSGAEVKKPGASVKVSCKASGYTFTNYDIIWVRQAPGQGLEWMGYINPYNDGTKYNEKFKGRVTMTRDTSTSTVYMELSSLRSEDTAVYYCARLLKYRRFRYYAIDYWGQGTTVTVSS
VL: DIQMTQSPSSLSASVGDRVTITCRTSENVYSNLAWYQQKPGKAPKLLIYAASNLQSGVPSRFSGSGSGTDYTFTISSLQPEDIATYYCQHFWGSPFTFGQGTKLEIKR
notes: captured by anti-mFc in SPR; also called Comparator; comparator anti-TrkB monoclonal antibody
B5: M2aM14173N (antibody, mouse IgG2a, kappa, V domains shown)
VH: NVSLVESGGGSVKPGGSLQLSCAASGFTFSSSAMSWIRQTPEMRLEWVATISDRGSYTYYPDSVEGRFTISRDNAKNILYLQMSHLMSEDTAMYYCARGKGEKAYYTAFFAYWGQGSLVTVSA
VL: DIQMTQSPASLSASVGETVTITCRASENIYSYLAWYQQKPGKSPHLLVHNAETLAEGVPSRFSGSGSGPQFSLKINSLQPGDSGTYYCQHHYSSPWTFGGGTKLEIKR
notes: as for B2

Columns and labels:
[1] = target: T1, human TrkB extracellular domain expressed with a C-terminal mouse IgG2a Fc tag (human); test: BLI Octet, captured hTrkB.mFc, 300 nM mAb, no ligand
T1 construct: also called hTrkB-mFc; hTrkB.mFc
Protocol: (§1) Blocking of anti-human TrkB or anti-mouse TrkB antibodies from binding to TrkB by BDNF or NT-4 was evaluated using a real-time bio-layer interferometry (BLI) based Octet HTX instrument. The entire study was performed in 10 mM HEPES pH 7.4, 300 mM NaCl, 3 mM EDTA, 1 mg/mL BSA, 0.02% NaN3 and 0.05% v/v Surfactant Tween-20 (HBS-EBT running buffer) at 25° C. All the samples were dispensed in a 384 tilted well plate and the plate was placed on the orbital shaker with the shake speed of 1000 rpm. hTrkB.mFc was captured on anti-mFc (AMC) Octet sensors while hTrkB.hFc or mTrkB.hFc were captured on anti-hFc (AHC) Octet sensors by dipping in wells containing 10 μg/mL of TrkB reagents for 2 minutes. hTrkB.mFc or hTrkB.hFc captured Octet biosensors were saturated by dipping in wells containing 20 nM of BDNF, hNT-4, or mNT-4 for 2 minutes followed by dipping Octet biosensors in wells containing 300 nM of different TrkB mAbs for 4 minutes. Binding of TrkB mAbs to the complex of TrkB and BDNF, hNT-4, or mNT-4 was determined using Scrubber 2.0c analysis software.

[2] = target: T1, human TrkB extracellular domain …; test: BLI Octet, captured hTrkB.mFc, 300 nM mAb (hNT-4 run)
Protocol: as §1

[3] = target: T1, human TrkB extracellular domain …; test: BLI Octet, captured hTrkB.mFc saturated with hNT-4, 300 nM mAb
Protocol: as §1

[4] = target: T2, human TrkB expressed on HEK293/SRE-Luc/hTrkB cells (human, UniProt Q16620 32-822); test: cell-based or functional assay
[5] = target: T3, mouse TrkB extracellular domain fused to the transmembrane and cytoplasmic domains of human TrkB, expressed … (mouse; human, UniProt Q16620 431-822, limits assumed); test: cell-based or functional assay
[6] = target: T1, human TrkB extracellular domain …; test: BLI Octet, captured hTrkB.mFc, 300 nM mAb (BDNF run)
Protocol: as §1

[7] = target: T4, rat TrkB extracellular domain expressed with a C-terminal myc-myc-hexahistidine tag (rat, UniProt Q63604 32-429); test: SPR, mAb captured (anti-hFc), 37C
T4 construct: also called rTrkB.mmH; rTRKB.mmH
Protocol: (§2) Equilibrium dissociation constants (KD values) for TrkB binding to purified anti-TrkB monoclonal antibodies were determined using a real-time surface plasmon resonance biosensor using a Biacore 4000 instrument. All binding studies were performed in 10 mM Hepes pH 7.4, 150 mM NaCl, 3 mM EDTA, and 0.05% v/v Surfactant Tween-20 (HBS-ET running buffer) at 25° C. and 37° C. […] Binding studies were performed on following TrkB reagents; human TrkB extracellular domain expressed with a C-terminal myc-myc-hexahistidine tag (hTRKB.mmH; SEQ ID NO: 76; Accession number NP_001018074.1), mouse TrkB extracellular domain expressed with a C-terminal myc-myc-hexahistidine tag (mTRKB.mmH; SEQ ID NO: 79; Accession number NP_001020245), rat TrkB extracellular domain expressed with a C-terminal myc-myc-hexahistidine tag (rTRKB.mmH; SEQ ID NO: 84; Accession number NP_036863.1), and human TrkB extracellular domain expressed with a C-terminal mouse IgG2a Fc tag (hTrkB-mFc; SEQ ID NO: 77; Accession number NP_001018074.1). […] Kinetic association (kₐ) and dissociation (kd) rate constants were determined by fitting the real-time binding sensorgrams to a 1:1 binding model with mass transport limitation using Scrubber 2.0c curve-fitting software. Binding dissociation equilibrium constants (KD) and dissociative half-lives (t½) were calculated from the kinetic rate constants as: […]

[8] = target: T5, human TrkB extracellular domain expressed with a C-terminal myc-myc-hexahistidine tag (human, UniProt Q16620 32-430); test: SPR, mAb captured (anti-hFc), 37C
T5 construct: also called hTrkB.mmH; hTRKB.mmH
Protocol: as §2

[9] = target: T6, mouse TrkB extracellular domain expressed with a C-terminal myc-myc-hexahistidine tag (mouse, UniProt P15209 32-429); test: SPR, mAb captured (anti-hFc), 37C
T6 construct: also called mTrkB.mmH; mTRKB.mmH
Protocol: as §2

[10] = target: T1, human TrkB extracellular domain …; test: SPR, mAb captured (anti-hFc), 37C
Protocol: as §2

mouse TrkB.hFc = target: T7, mouse TrkB.hFc (mouse); test: BLI Octet, captured mTrkB.hFc, 300 nM mAb, no ligand
T7 construct: also called mTrkB.hFc; mTrkB-hFc
Protocol: as §1

[11] = target: T2, human TrkB expressed on …; test: cell-based or functional assay; remark: listed apart in the source
[12] = target: T3, mouse TrkB extracellular domain fused …; test: cell-based or functional assay; remark: listed apart in the source

T1 sequence (chain, as listed by the source limits assumed): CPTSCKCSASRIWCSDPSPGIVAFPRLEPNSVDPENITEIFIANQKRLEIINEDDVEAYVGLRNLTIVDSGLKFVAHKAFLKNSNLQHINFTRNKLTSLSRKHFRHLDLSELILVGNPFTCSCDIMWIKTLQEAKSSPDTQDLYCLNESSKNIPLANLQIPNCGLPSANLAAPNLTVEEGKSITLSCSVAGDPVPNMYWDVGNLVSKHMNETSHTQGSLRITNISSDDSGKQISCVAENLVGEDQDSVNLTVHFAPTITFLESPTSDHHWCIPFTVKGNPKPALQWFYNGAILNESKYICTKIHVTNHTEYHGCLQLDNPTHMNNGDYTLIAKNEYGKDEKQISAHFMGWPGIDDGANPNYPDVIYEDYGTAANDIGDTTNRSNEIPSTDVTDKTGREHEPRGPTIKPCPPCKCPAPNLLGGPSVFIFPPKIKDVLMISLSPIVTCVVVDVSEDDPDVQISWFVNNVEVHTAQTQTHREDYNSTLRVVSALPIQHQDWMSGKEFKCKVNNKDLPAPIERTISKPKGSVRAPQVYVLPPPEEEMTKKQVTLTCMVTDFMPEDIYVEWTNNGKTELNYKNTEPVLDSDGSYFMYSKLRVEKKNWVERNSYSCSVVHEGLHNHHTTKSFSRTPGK
T2 sequence (Q16620 32-822): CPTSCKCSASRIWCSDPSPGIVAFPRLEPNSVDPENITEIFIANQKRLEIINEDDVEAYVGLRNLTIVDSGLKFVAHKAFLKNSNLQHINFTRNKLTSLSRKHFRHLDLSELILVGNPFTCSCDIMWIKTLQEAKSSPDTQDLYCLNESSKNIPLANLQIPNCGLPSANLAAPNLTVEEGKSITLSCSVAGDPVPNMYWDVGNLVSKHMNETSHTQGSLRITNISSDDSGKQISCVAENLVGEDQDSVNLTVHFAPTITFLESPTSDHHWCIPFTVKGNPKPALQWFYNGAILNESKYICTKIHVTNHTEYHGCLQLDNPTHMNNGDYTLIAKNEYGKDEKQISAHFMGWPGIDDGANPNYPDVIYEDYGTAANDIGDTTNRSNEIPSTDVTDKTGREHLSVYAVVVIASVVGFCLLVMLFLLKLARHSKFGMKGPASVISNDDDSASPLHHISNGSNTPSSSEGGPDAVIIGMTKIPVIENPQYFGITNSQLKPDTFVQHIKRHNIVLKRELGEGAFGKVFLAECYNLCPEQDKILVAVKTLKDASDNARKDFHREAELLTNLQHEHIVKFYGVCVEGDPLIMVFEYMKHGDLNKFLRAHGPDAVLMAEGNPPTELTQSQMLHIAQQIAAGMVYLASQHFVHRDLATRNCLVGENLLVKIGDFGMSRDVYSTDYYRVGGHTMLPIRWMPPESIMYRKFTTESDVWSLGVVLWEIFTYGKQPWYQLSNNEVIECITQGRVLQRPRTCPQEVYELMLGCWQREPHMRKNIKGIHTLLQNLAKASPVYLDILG
T5 sequence (Q16620 other isoform, or with tags, fused parts or gaps): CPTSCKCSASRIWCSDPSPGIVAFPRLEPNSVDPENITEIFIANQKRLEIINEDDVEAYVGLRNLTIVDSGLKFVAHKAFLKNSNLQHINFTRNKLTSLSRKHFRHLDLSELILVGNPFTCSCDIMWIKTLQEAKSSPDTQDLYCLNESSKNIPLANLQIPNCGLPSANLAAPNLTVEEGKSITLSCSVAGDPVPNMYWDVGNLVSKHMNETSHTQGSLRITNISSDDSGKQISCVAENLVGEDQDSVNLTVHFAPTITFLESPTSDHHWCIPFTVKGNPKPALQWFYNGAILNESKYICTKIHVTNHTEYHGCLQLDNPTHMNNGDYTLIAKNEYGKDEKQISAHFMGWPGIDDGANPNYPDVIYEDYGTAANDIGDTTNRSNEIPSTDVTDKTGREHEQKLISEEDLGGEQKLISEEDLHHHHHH
T3 sequence (Q16620 other isoform, or with tags, fused parts or gaps limits assumed, form in doubt): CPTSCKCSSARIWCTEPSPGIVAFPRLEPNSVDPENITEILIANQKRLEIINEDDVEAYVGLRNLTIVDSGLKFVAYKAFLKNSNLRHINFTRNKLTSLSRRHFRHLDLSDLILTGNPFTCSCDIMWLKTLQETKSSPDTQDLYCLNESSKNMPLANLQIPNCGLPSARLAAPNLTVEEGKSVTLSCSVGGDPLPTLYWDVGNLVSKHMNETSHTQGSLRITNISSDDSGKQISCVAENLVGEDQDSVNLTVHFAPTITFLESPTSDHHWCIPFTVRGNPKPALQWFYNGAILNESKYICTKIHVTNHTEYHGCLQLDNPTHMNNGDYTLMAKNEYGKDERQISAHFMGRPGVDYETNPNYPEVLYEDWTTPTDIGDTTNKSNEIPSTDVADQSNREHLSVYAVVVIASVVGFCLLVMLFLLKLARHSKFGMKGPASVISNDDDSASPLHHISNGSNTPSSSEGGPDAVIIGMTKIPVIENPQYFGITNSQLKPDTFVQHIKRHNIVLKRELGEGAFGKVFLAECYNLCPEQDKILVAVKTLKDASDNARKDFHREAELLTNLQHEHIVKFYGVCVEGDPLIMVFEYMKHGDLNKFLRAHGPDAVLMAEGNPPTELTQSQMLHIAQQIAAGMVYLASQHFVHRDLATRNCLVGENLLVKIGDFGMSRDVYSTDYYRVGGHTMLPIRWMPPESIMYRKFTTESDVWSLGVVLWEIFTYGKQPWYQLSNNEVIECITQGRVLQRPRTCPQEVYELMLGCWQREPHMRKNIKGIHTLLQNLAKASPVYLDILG
T7 sequence (chain, as listed by the source limits assumed): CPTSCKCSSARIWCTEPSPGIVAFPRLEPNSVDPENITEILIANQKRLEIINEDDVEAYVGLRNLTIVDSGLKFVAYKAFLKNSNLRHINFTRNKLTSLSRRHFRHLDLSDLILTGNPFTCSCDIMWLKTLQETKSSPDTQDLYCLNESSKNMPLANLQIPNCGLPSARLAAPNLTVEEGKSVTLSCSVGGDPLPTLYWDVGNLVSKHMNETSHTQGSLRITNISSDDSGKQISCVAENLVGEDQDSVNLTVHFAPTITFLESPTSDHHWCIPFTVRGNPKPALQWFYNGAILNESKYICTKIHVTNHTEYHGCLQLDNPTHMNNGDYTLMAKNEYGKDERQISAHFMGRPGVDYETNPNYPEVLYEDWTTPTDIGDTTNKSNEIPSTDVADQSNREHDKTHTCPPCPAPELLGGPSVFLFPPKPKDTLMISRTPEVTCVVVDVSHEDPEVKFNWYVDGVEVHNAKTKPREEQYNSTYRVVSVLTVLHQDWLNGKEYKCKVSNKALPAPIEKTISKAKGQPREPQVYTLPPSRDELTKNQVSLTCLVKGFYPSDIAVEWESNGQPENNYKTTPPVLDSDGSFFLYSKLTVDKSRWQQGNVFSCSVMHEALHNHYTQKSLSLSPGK
T4 sequence (Q63604 other isoform, or with tags, fused parts or gaps): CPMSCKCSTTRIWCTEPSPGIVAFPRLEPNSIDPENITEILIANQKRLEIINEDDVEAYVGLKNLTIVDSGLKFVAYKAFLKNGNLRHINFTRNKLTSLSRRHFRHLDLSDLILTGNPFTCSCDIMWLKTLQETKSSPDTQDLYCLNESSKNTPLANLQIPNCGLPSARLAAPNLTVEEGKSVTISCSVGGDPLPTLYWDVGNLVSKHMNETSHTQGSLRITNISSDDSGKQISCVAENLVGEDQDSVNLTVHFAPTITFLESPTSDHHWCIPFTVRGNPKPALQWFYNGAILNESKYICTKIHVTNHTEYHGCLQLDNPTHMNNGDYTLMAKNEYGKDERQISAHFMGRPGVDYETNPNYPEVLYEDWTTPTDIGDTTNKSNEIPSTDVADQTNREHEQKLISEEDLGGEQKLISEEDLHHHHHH
T6 sequence (P15209 other isoform, or with tags, fused parts or gaps): as the sequence (Q63604 other isoform, or with tags, fused parts or gaps) above, with M3T, T9S, T10A, I32V, K63R, G84S, T153M, I185L, T394S counted along it

Binder	antibody Binding (nm) [1]	mAb Binding (nm) [2]	antibody Binding (nm) [3]	Activation (%), SRE-luciferase, 100 pM BDNF [4]	Activation (%), SRE-luciferase, No BDNF [4]	EC50 (M), SRE-luciferase, 100 pM BDNF [4]	EC50 (M), SRE-luciferase, No BDNF [4]	Activation (%), SRE-luciferase, 100 pM BDNF [5]	Activation (%), SRE-luciferase, No BDNF [5]	mAb Binding (nm) [6]	100 nM rTrkB.mmH Bound (RU) [7]	100 nM hTrkB.mmH Bound (RU) [8]	Kd [8]	antibody Binding (nm) (mouse TrkB.hFc)	Activation (%), SRE-luciferase, 100 pM BDNF [11]	Activation (%), SRE-luciferase, No BDNF [11]	Activation (%), SRE-luciferase, 100 pM BDNF [12]	Activation (%), SRE-luciferase, No BDNF [12]	EC50 (M), SRE-luciferase, 100 pM BDNF [12]	EC50 (M), SRE-luciferase, No BDNF [12]	other results
B1	0.18 nm	0.18 nm	0.23 nm	80%	92%	4.9e-11 M	3.5e-11 M	54%	0%	0.18 nm	-1 RU	32 RU	2.28 nM	–	–	–	–	–	–	–	koff [8]: 0.00468 s⁻¹; kon [8]: 2.05e+06 M⁻¹ s⁻¹; t½ [8]: 2.5 min; 100 nM mTrkBmmH Bound (RU) [9]: 0 RU; 100 nM hTrkB-mFc Bound (RU) [10]: 42 RU; Kd [10]: 0.0733 nM; koff [10]: 0.000208 s⁻¹; kon [10]: 2.83e+06 M⁻¹ s⁻¹; t½ [10]: 56 min
B2	–	–	–	–	–	–	–	–	–	–	–	–	–	0.42 nm	52%	4%	75%	87%	2.1e-11 M	3.4e-11 M	–
B3	0.18 nm	0.18 nm	0.2 nm	77%	88%	7.6e-11 M	8.2e-11 M	55%	0%	0.18 nm	0 RU	14 RU	63.8 nM	–	–	–	–	–	–	–	koff [8]: 0.00364 s⁻¹; kon [8]: 57100 M⁻¹ s⁻¹; t½ [8]: 3.2 min; 100 nM mTrkBmmH Bound (RU) [9]: 1 RU; 100 nM hTrkB-mFc Bound (RU) [10]: 14 RU; Kd [10]: 3.33 nM; koff [10]: 0.000222 s⁻¹; kon [10]: 66500 M⁻¹ s⁻¹; t½ [10]: 52 min
B4	–	–	–	79%	78%	1.1e-10 M	7.6e-11 M	69%	85%	–	–	–	–	0.42 nm	79%	80%	69%	85%	4.2e-11 M	4.3e-11 M	EC50 (M), SRE-luciferase, 100 pM BDNF [11]: 1.1e-10 M; EC50 (M), SRE-luciferase, No BDNF [11]: 5.7e-11 M; EC50 (M), SRE-luciferase, 100 pM BDNF [5]: 4.2e-11 M; EC50 (M), SRE-luciferase, No BDNF [5]: 4.3e-11 M
B5	–	–	–	–	–	–	–	–	–	–	–	–	–	0.42 nm	59%	2%	74%	94%	1.7e-11 M	3.6e-11 M	–

Reference: patent US20190161551A1 (Regeneron, published 2019)
